1 substance from patent publication US20120165267A1 can be followed below.

Experiment [1] has as its target DR4-selective phage clone 8 (human) (UniProt P50591). Nature of the experiment: competition phage ELISA: phage clone Apo.DR4-8 at a fixed concentration on wells coated with DR4-IgG, competed by rising soluble DR4-IgG (axis in nM), bound phage detected with anti-M13 antibody-HRP, A450; IC50 from a 4-parameter fit, first value in the IC50 box beside the legend. On the technique in general: In an ELISA, binding on a coated surface is turned into a signal by an enzyme label.

The target in experiment [2] is DR4-selective phage clone 11 (human) (UniProt P50591). In words: competition phage ELISA: phage clone Apo.DR4-11 at a fixed concentration on wells coated with DR4-IgG, competed by rising soluble DR4-IgG (axis in nM), bound phage detected with anti-M13 antibody-HRP, A450; IC50 from a 4-parameter fit, third value in the IC50 box beside the legend.
In experiment [3] the target is DR4-selective phage clone 9 (human) (UniProt P50591). In words: competition phage ELISA: phage clone Apo.DR4-9 at a fixed concentration on wells coated with DR4-IgG, competed by rising soluble DR4-IgG (axis in nM), bound phage detected with anti-M13 antibody-HRP, A450; IC50 from a 4-parameter fit, second value in the IC50 box beside the legend.
Experiment [4] deals with DR4-selective phage clone 13 (human) (UniProt P50591). Nature of the experiment: competition phage ELISA: phage clone Apo.DR4-13 at a fixed concentration on wells coated with DR4-IgG, competed by rising soluble DR4-IgG (axis in nM), bound phage detected with anti-M13 antibody-HRP, A450; IC50 from a 4-parameter fit, fourth value in the IC50 box beside the legend.
For experiment [5], the target named is wild-type (native sequence) Apo2L/TRAIL(96-281) displayed on phage (human) (UniProt P50591). In words: competition phage ELISA: wild-type Apo2L/TRAIL phage (ApoWT) at a fixed concentration on wells coated with DR4-IgG, competed by rising soluble DR4-IgG (axis in nM), bound phage detected with anti-M13 antibody-HRP, A450; IC50 from a 4-parameter fit, fifth value in the IC50 box beside the legend.

DR4-IgG, sequence (O00220 24-241 H141R/R209T limits assumed): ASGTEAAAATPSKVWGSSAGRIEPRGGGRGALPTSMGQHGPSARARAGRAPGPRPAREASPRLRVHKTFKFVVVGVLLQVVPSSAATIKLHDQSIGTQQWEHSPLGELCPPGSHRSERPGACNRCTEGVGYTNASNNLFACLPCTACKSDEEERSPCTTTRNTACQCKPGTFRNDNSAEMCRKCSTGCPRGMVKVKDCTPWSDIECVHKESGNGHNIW

As a reminder, the IC50 is the midpoint of a concentration-inhibition curve. Low readings indicate greater potency in that assay, high ones weaker potency in that assay. With “DR4-IgG (from UniProt O00220 24-241) (Fc fusion)”, the IC50 in experiment [1] worked out at 1.3 nM; in experiment [2] it was 4.2 nM; in experiment [3] it was 1.1 nM; in experiment [4] it was 6.7 nM; in experiment [5], 2.8 nM.
